Laboratory results taken from patent US20180193423A1 (LONGEVITY BIOTECH, published 2018).
Primed or numbered codes have the meaning given here. Where no end group is shown, it is not given here. [ ]: non-standard residue; d: D form. APC″ = 3-aminopyrrolidine-4-carboxylic acid (cyclic β-amino acid); ACPC″ = 2-aminocyclopentanecarboxylic acid (x in the sequences); APC = 3-aminopyrrolidine-4-carboxylic acid; ACPC = 2-aminocyclopentanecarboxylic acid; β3hY = N[C@H](CC(=O)O)Cc1ccc(O)cc1; β3hR = N=C(N)NCCC[C@H](N)CC(=O)O; β3hQ = NC(=O)CC[C@H](N)CC(=O)O; β3hN = NC(=O)C[C@H](N)CC(=O)O; β3hL = CC(C)C[C@H](N)CC(=O)O; β3hK = NCCCC[C@H](N)CC(=O)O; β3hV = CC(C)[C@H](N)CC(=O)O; Aib = CC(C)(N)C(=O)O; βAla = NCCC(=O)O

T1: VPAC2 receptor (UniProt P41587 24-438, limits assumed)
T1 sequence (looked up): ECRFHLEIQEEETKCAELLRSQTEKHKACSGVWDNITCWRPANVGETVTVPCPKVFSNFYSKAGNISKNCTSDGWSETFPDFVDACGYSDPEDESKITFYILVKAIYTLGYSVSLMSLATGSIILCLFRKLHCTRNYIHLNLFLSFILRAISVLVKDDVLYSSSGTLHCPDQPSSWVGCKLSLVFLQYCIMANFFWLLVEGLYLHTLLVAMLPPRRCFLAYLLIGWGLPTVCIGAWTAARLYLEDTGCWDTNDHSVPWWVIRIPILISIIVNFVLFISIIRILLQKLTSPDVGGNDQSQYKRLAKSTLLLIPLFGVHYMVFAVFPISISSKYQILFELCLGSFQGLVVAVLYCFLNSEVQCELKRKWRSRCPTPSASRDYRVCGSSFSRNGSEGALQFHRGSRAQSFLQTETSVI

T2: VPAC1 receptor (UniProt P32241 31-457, limits assumed)
T2 sequence (looked up): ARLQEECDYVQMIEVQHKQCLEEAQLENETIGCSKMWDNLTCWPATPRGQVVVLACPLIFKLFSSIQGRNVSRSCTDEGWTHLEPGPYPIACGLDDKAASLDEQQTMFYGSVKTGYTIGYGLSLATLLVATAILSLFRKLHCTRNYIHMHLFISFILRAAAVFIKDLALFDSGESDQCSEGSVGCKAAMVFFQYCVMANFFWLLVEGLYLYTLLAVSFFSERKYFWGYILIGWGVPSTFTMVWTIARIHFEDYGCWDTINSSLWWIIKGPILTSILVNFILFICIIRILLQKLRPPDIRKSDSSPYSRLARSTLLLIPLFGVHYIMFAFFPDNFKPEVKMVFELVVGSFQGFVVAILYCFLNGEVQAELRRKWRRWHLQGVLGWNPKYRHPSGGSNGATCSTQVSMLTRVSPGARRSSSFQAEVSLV


Biological target: T1, VPAC2 receptor
Assay: cell-based or functional assay

Binder | EC50 vpac2 (Molar), cell-based cAMP assay
Ac-H[ACPC″]DA[β3hV]FTENYTKL[β3hR]KQLAA[APC″]KY[ACPC″]NDL[β3hK]KG[βAla]T (not fully specified (C-terminus); printed as Ac-HxDAvFTENYTKLrKQLAAzKYxNDLkKGgT) [LBT-V214] | 1.37 nM
Ac-H[Aib]DA[β3hV]FTE[β3hN]YTKLRKQLAA[APC]KY[ACPC]NDL[β3hK]KG[βAla]T (not fully specified (C-terminus); printed as Ac-HBDAvFTEnYTKLRKQLAAzKYxNDLkKGgT) [LBT-V206] | 3.47 nM
Ac-H[ACPC]DA[β3hV]FTENYTKLRK[β3hQ]LAA[APC]KY[ACPC]NDL[β3hK]KG[βAla]T (not fully specified (C-terminus); printed as Ac-HxDAvFTENYTKLRKqLAAzKYxNDLkKGgT) [LBT-V212] | 3.52 nM
Ac-H[ACPC]DA[ACPC]FTE[ACPC]YTKLRKQLAA[APC]KY[ACPC]NDL[β3hK]KG[βAla]T (not fully specified (C-terminus); printed as Ac-HxDAxFTExYTKLRKQLAAzKYxNDLkKGgT) [LBT-V209] | 5.58 nM
Ac-H[ACPC]DA[β3hV]FTENYTKLRKQLAA[APC]KY[ACPC]NDL[β3hK]KG[βAla]T (not fully specified (C-terminus); printed as Ac-HxDAvFTENYTKLRKQLAAzKYxNDLkKGgT) [LBT-V210] | 0.859 nM
Ac-HSDAVFTENYTKLRKQLA[ACPC]KKY[ACPC]ND[β3hL]KKG[βAla]T (not fully specified (C-terminus); printed as Ac-HSDAVFTENYTKLRKQLAxKKYxNDlKKGgT) [LBT-V201] | 104 nM

Now from value to binder:

EC50 vpac2 (Molar), cell-based cAMP assay | Binder
0.422 nM | Ac-HSDAVFTENYTKLRKQ[ACPC″]AAK[APC″]YL[ACPC″]DLK[β3hK]GGT (not fully specified (C-terminus); printed as Ac-HSDAVFTENYTKLRKQxAAKzYLxDLKkGGT) [LBT-V220]
> 1000 nM | Ac-H[ACPC″]DA[ACPC″]FTE[ACPC″][β3hY]TKLR[β3hK]QLAA[APC″]KY[ACPC″]NDL[β3hK]KG[βAla]T (not fully specified (C-terminus); printed as Ac-HxDAxFTExyTKLRkQLAAzKYxNDLkKGgT) [LBT-V219]
95.6 nM | Ac-H[ACPC″]DA[ACPC″]FTE[β3hN][β3hY]TKLRKQLAA[APC″]KY[ACPC″]NDL[β3hK]KG[βAla]T (not fully specified (C-terminus); printed as Ac-HxDAxFTEnyTKLRKQLAAzKYxNDLkKGgT) [LBT-V216]
1.17 nM | Ac-H[ACPC″]DA[ACPC″]FTE[ACPC″][β3hY]TKLRKQ[β3hL]AA[APC″]KY[ACPC″]NDL[β3hK]KG[βAla]T (not fully specified (C-terminus); printed as Ac-HxDAxFTExyTKLRKQlAAzKYxNDLkKGgT) [LBT-V217]
0.0784 nM | Ac-HSDAVFTDNYTRLRKQ[ACPC″]AAK[APC″]YL[ACPC″]SIK[β3hN]KRY (not fully specified (C-terminus); printed as Ac-HSDAVFTDNYTRLRKQxAAKzYLxSIKnKRY) [LBT-V221]

Biological target: T2, VPAC1 receptor
Assay: cell-based or functional assay

Binder | EC 50 vpac1 (Molar), cell-based cAMP assay
Ac-H[ACPC″]DA[β3hV]FTENYTKL[β3hR]KQLAA[APC″]KY[ACPC″]NDL[β3hK]KG[βAla]T (not fully specified (C-terminus); printed as Ac-HxDAvFTENYTKLrKQLAAzKYxNDLkKGgT) [LBT-V214] | > 1000 nM
Ac-H[Aib]DA[β3hV]FTE[β3hN]YTKLRKQLAA[APC]KY[ACPC]NDL[β3hK]KG[βAla]T (not fully specified (C-terminus); printed as Ac-HBDAvFTEnYTKLRKQLAAzKYxNDLkKGgT) [LBT-V206] | > 1000 nM
Ac-H[ACPC]DA[β3hV]FTENYTKLRK[β3hQ]LAA[APC]KY[ACPC]NDL[β3hK]KG[βAla]T (not fully specified (C-terminus); printed as Ac-HxDAvFTENYTKLRKqLAAzKYxNDLkKGgT) [LBT-V212] | 1530 nM
Ac-H[ACPC]DA[ACPC]FTE[ACPC]YTKLRKQLAA[APC]KY[ACPC]NDL[β3hK]KG[βAla]T (not fully specified (C-terminus); printed as Ac-HxDAxFTExYTKLRKQLAAzKYxNDLkKGgT) [LBT-V209] | > 1000 nM
Ac-H[ACPC]DA[β3hV]FTENYTKLRKQLAA[APC]KY[ACPC]NDL[β3hK]KG[βAla]T (not fully specified (C-terminus); printed as Ac-HxDAvFTENYTKLRKQLAAzKYxNDLkKGgT) [LBT-V210] | 1420 nM
Ac-HSDAVFTENYTKLRKQLA[ACPC]KKY[ACPC]ND[β3hL]KKG[βAla]T (not fully specified (C-terminus); printed as Ac-HSDAVFTENYTKLRKQLAxKKYxNDlKKGgT) [LBT-V201] | 9.09 nM

Results, then the binder that gave them:

EC 50 vpac1 (Molar), cell-based cAMP assay | Binder
9.51 nM | Ac-HSDAVFTENYTKLRKQ[ACPC″]AAK[APC″]YL[ACPC″]DLK[β3hK]GGT (not fully specified (C-terminus); printed as Ac-HSDAVFTENYTKLRKQxAAKzYLxDLKkGGT) [LBT-V220]
461 nM | Ac-H[ACPC″]DA[ACPC″]FTE[ACPC″][β3hY]TKLR[β3hK]QLAA[APC″]KY[ACPC″]NDL[β3hK]KG[βAla]T (not fully specified (C-terminus); printed as Ac-HxDAxFTExyTKLRkQLAAzKYxNDLkKGgT) [LBT-V219]
932 nM | Ac-H[ACPC″]DA[ACPC″]FTE[β3hN][β3hY]TKLRKQLAA[APC″]KY[ACPC″]NDL[β3hK]KG[βAla]T (not fully specified (C-terminus); printed as Ac-HxDAxFTEnyTKLRKQLAAzKYxNDLkKGgT) [LBT-V216]
785 nM | Ac-H[ACPC″]DA[ACPC″]FTE[ACPC″][β3hY]TKLRKQ[β3hL]AA[APC″]KY[ACPC″]NDL[β3hK]KG[βAla]T (not fully specified (C-terminus); printed as Ac-HxDAxFTExyTKLRKQlAAzKYxNDLkKGgT) [LBT-V217]
0.195 nM | Ac-HSDAVFTDNYTRLRKQ[ACPC″]AAK[APC″]YL[ACPC″]SIK[β3hN]KRY (not fully specified (C-terminus); printed as Ac-HSDAVFTDNYTRLRKQxAAKzYLxSIKnKRY) [LBT-V221]
